Data taken from patent US20230242620A1.

Assays:
[1] = target: analytical polyclonal antibody generated in Example 2; assay: SPR Biacore T100, polyclonal immobilized, 500 nM ISV, RU at end of injection
[2] = target: affinity purified antibody IHuP#002-001-ABL-08; assay: ECL bridging/competition assay, 10 ug/ml ISV, 400 ng/ml antibody, labelled SEQ ID NO:1
[3] = target: serum sample IHUS#B09032311A20 (pre-existing antibodies against ISV); assay: ECL drug displacement assay, variant as competitor against labelled SEQ ID NO:1
[4] = target: serum sample IHUS#B09032311A1; assay: as above
[5] = target: serum sample IHUS#B09032311A3 (pre-existing antibodies against ISV); assay: as above

Binding (RU) [1] [RU]	% reduction [2] [%]	ECLU confirmatory assay [2] [ECLU]	% reduction [3] [%]	ECLU confirmatory assay [3] [ECLU]	% reduction [4] [%]	ECLU confirmatory assay [4] [ECLU]	% reduction [5] [%]	ECLU confirmatory assay [5] [ECLU]	Binder
39									Nb6.2 (VHH) VHH: EVQLVESGGGLVQPGGSLRLSCIASGLPFSTKSMGWFRQAPGKEREFVARISPGGTSRYYGDFVKGRFAISRDNAKNTTWLQMNSLKAEDTAVYYCASGERSTYIGSNYYRTNEYDYWGTGTQVTVSS
66									Nb6.5 (VHH) VHH: EVQLLESGGGLVQPGGSLRLSCAASGLPFSTKSMGWFRQAPGKGREFVSRISPGGTSRYYGDFVKGRFTISRDNSKNTLYLQMNSLRAEDTAVYYCASGERSTYIGSNYYRTNEYDYWGQGTLVTVSS
	58.6	1210	18	15100	3	60	18	1810	Example 1C: (A14P, R39Q, K83R, T91Y, Q108L)-QA (VHH) VHH: EVQLVESGGGLVQPGGSLRLSCAASGRTFNNYAMGWFRQAPGKEREFVAAITRSGVRSGVSAIYGDSVKDRFTISRDNAKNTLYLQMNSLRPEDTAVYYCAASAIGSGALRRFEYDYSGQGTLVTVSS
	15.7	2460	63	6910	1	62	37	1400	Example 1C: (K83R) (VHH) VHH: EVQLVESGGGLVQAGGSLRLSCAASGRTFNNYAMGWFRRAPGKEREFVAAITRSGVRSGVSAIYGDSVKDRFTISRDNAKNTLYLQMNSLRPEDTAVYTCAASAIGSGALRRFEYDYSGQGTQVTVSS
	7.3	2710	53	8680	4	60	20	1780	Example 1C: wildtype (VHH) VHH: EVQLVESGGGLVQAGGSLRLSCAASGRTFNNYAMGWFRRAPGKEREFVAAITRSGVRSGVSAIYGDSVKDRFTISRDNAKNTLYLQMNSLKPEDTAVYTCAASAIGSGALRRFEYDYSGQGTQVTVSS
	13.2	2530	62	6990	5	59	31	1530	Example 1C: (Q108L) (VHH) VHH: EVQLVESGGGLVQAGGSLRLSCAASGRTFNNYAMGWFRRAPGKEREFVAAITRSGVRSGVSAIYGDSVKDRFTISRDNAKNTLYLQMNSLKPEDTAVYTCAASAIGSGALRRFEYDYSGQGTLVTVSS
	90.8	268	96	668	10	56	91	205	Example 1C: (A14P) (VHH) VHH: EVQLVESGGGLVQPGGSLRLSCAASGRTFNNYAMGWFRRAPGKEREFVAAITRSGVRSGVSAIYGDSVKDRFTISRDNAKNTLYLQMNSLKPEDTAVYTCAASAIGSGALRRFEYDYSGQGTQVTVSS
	91.4	251	97	570	6	58	90	228	Example 1c: (A14P, R39Q, K83R,T91Y, Q108L) (VHH) VHH: EVQLVESGGGLVQPGGSLRLSCAASGRTFNNYAMGWFRQAPGKEREFVAAITRSGVRSGVSAIYGDSVKDRFTISRDNAKNTLYLQMNSLRPEDTAVYYCAASAIGSGALRRFEYDYSGQGTLVTVSS
	-13.1	3300	18	15200	0	62	13	1930	Example 1C: (A14P, R39Q, K83R, T91Y, Q108L)-3A (VHH) VHH: EVQLVESGGGLVQPGGSLRLSCAASGRTFNNYAMGWFRQAPGKEREFVAAITRSGVRSGVSAIYGDSVKDRFTISRDNAKNTLYLQMNSLRPEDTAVYYCAASAIGSGALRRFEYDYSGQGTLVTVSS
	89.1	319	97	628	8	57	93	156	Example 1C: (A14P, K83R, Q108L) (VHH) VHH: EVQLVESGGGLVQPGGSLRLSCAASGRTFNNYAMGWFRRAPGKEREFVAAITRSGVRSGVSAIYGDSVKDRFTISRDNAKNTLYLQMNSLRPEDTAVYTCAASAIGSGALRRFEYDYSGQGTLVTVSS
51									Nb4.1 (VHH) VHH: EVQLVESGGGLVQPGGSLRLSCAASGSVFKINVMAWYRQAPGKGRELVAGIISGGSTSYADSVKGRFTISRDNAKNTLYLQMNSLRPEDTAVYYCAFITTESDYDLGRRYWGQGTLVTVSS
91									Nb3.10 (VHH) VHH: EVQLVESGGGLVQAGGSLRLSCAASRSIGRLDRMGWYRHRPGEPRELVATITGGSSINYGDSVKGRFTISIDNSKNTVYLQMNSLRPEDTAVYYCNFNKYVTSRDTWGQGTLVTVSS
2									Nb3.1 (VHH) VHH: EVQLVESGGGLVQAGGSLRLSCAASRSIGRLDRMGWYRHRTGEPRELVATITGGSSINYGDFVKGRFTISIDNAKNTVYLQMNNLKPEDTAVYYCNFNKYVTSRDTWGQGTQVTVSS
90									Nb3.13 (VHH) VHH: EVQLVESGGGLVQPGGSLRLSCAASRSIGRLDRMGWYRHRPGEPRELVATITGGSSINYGDSVKGRFTISIDNSKNTVYLQMNSLRPEDTAVYYCNFNKYVTSRDTWGQGTQVTVSS
79									Nb3.14 (VHH) VHH: EVQLVESGGGLVQPGGSLRLSCAASRSIGRLDRMGWYRHRPGEPRELVATITGGSSINYGDSVKGRFTISIDNSKNTVYLQMNSLRPEDTAVYYCNFNKYVTSRDTWGQGTLVQVSS
86									Nb3.12 (VHH) VHH: EVQLVESGGGLVQAGGSLRLSCAASRSIGRLDRMGWYRHRPGEPRELVATITGGSSINYGDSVKGRFTISIDNSKNTVYLQMNSLRPEDTAVYYCNFNKYVTSRDTWGQGTQVTVSS
22									Nb3.15 (VHH) VHH: EVQLVESGGGSVQPGGSLRLSCAASRSIGRLDRMGWYRHRPGEPRELVATITGGSSINYGDSVKGRFTISIDNSKNTVYLQMNSLRPEDTAVYYCNFNKYVTSRDTWGQGTLVTVSS
88									Nb3.11 (VHH) VHH: EVQLVESGGGLVQPGGSLRLSCAASRSIGRLDRMGWYRHRPGEPRELVATITGGSSINYGDSVKGRFTISIDNSKNTVYLQMNSLKPEDTAVYYCNFNKYVTSRDTWGQGTLVTVSS
